Results taken from publication PMC5677581 (2017).
βAla = NCCC(=O)O

Assays:
MLL1 [1] = target: T1, MLL1 (Homo sapiens); assay: fluorescence polarization
T1 chain: {fluorescein-βAla}-SDIMDFVLKNTP-NH2

MLL-WT [2] = target: T2, MLL-WT (Homo sapiens); assay: fluorescence polarization
T2 chain: {fluorescein-βAla}-DCGNILPSDIMDFVLKNTP-NH2

MLL-WT [3] = target: T3, MLL-WT (Homo sapiens); assay: fluorescence polarization competition
T3 chain: Ac-DCGNILPSDIMDFVLKNTP-NH2

MLL1 [4] = target: T4, MLL1 (Homo sapiens); assay: fluorescence polarization competition
T4 chain: Ac-SDIMDFVLKNTP-NH2

B1: KIX domain of CBP KIX (protein)
chain: not shown
For B1, the Kd (MLL1 [1]) was > 100 µM, the Kd (MLL-WT [2]) was 1 µM and the Ki (MLL-WT [3]) was 3 µM. For the same binder, the Ki (MLL1 [4]) was > 1000 µM.
